Measured values: the DeepSol protein solubility set

Experiment: soluble on expression in E. coli; label from the status in PepcDB or PDB records

Soluble on expression in E. coli, soluble:
GPGSMWALTCRPIQNTEALQLMERYKAHNALQSNQWLLPRHLACFAVRPLYPAQLVLPTSSVIRLPLSAVPFSSLPLSRKREVFGLYPPPCTPPGSCSLLECSGAAMRWRPASLSECFDAAFVRSDSPSSHQHLLCATDCAGSVTVAEEVTVFNAQETNNPFLVDADLVHRNLLTKEAYEHSIGSSLTTIAAQFRYTSFEWVEATAAAAVGLRVRSSAAPHLVNCVDMLRVVHISQLPYTRQQELVAEIPRMTLIKSMTISYIFYHTRWRHHKSMELMRPLLHSNIPCCDTPQAQALQPLLWIAVDLDMEFRGPVMECARHSRTQFYNSQQLEVDTCAVPSRS
MSLSDRVKKIESFTLTLPRETPYLGKPRPGEEPNGRGYLVRKANRTVYPTFDRSVLVRIETENGAVGWGETYGLVAPRATMEIIDDLLADFTIGRDPFDAAAIHDDLYDLMRVRGYTGGFYVDALAAIDIALWDLAGKLAGLPVCKLLGGQRRDRIAAYISGLPEDTRAKRAELAAAWQAKGFSSFKFASPVADDGVAKEMEILRERLGPAVRIACDMHWAHTASEAVALIKAMEPHGLWFAEAPVRTEDIDGLARVAASVSTAIAVGEEWRTVHDMVPRVARRALAIVQPEMGHKGITQFMRIGAYAHVHHIKVIPHATIGAGIFLAASLQASAALANVDCHEFQHSIFEPNRRLLVGDMDCLNGEYVVPTGPGLGVEPSKEAQGLLKKHEGHHHHHH
MEQKHNGIIFTAIPNESNEYYQPFYEDLIYFNECLNEKKSIADQLISLSVEEQDFHTSCFEYDDIWLRDVAPVVTNHLVKFKYRPNYLPDDQGRYLDQQFNKWLKKNDFEYVKSPLILDGGNLIWNKKDTVILTERIFDDNDDWTEEEIIEQLEWDLDVSRVIIIPAEEGDVLAHADGMVKFIDEHTMFISDFLGDHEFRYSVEEIIQEQMPEAEFIVVPSSYTEKGQYDQEIASAKGLYINMLESCDALYVPKFGLAKDEEVLRYIQQYTEKQVIQIHVGEISTMGGAMNCLTWYCPSHLLPSKMRRLKNQNEDFSMKKIFDWFLEHHHHHH
MIERYSREEMSNIWTDQNRYEAWLEVEILACEAWSELGHIPKADVQKIRQNAKVNVERAQEIEQETRHDVVAFTRQVSETLGEERKWVHYGLTSTDVVDTALSFVIKQANDIIEKDLERFIDVLAEKAKNYKYTLMMGRTHGVHAEPTTFGVKMALWYTEMQRNLQRFKQVREEIEVGKMSGAVGTFANIPPEIESYVCKHLGIGTAPVSTQTLQRDRHAYYIATLALIATSLEKFAVEIRNLQKTETREVEEAFAKGQKGSSAMPHKRNPIGSENITGISRVIRGYITTAYENVPLWHERDISHSSAERIMLPDVTIALDYALNRFTNIVDRLTVFEDNMRNNIDKTFGLIFSQRVLLALINKGMVREEAYDKVQPKAMISWETKTPFRELIEQDESITSVLTKEELDECFDPKHHLNQVDTIFERAGLA
MKVMECQTYEELSQIAARITADTIKEKPDAVLGLATGGTPEGTYRQLIRLHQTENLSFQNITTVNLDEYAGLSSDDPNSYHFYMNDRFFQHIDSKPSRHFIPNGNADDLEAECRRYEQLVDSLGDTDIQLLGIGRNGHIGFNEPGTSFKSRTHVVTLNEQTRQANARYFPSIDSVPKKALTMGIQTILSSKRILLLISGKSKAEAVRKLLEGNISEDFPASALHLHSDVTVLIDREAASLRP
AHHHHHHGSLCEEKLEVFENGFKDDKHNIEIHVYGGDGRKVLLALIYELYSPEYGSEYVYPFECAKEFWGIYLDSSEVKGEEAELKPLKFISESVKSKIEKELEDIKAPIEVELEKSTIYKVKDGYIVLGKNFLLDHKGRLFVFNKPQVGEIILKYIWKW
MIRLVIVEPEGSYNLGFISRLAKNFLVDELYIVNPHCDLEEAKKFSAKGLEYLEKAKIVNNFDEAIKDVELKIATSSIADIKGDILRKSIRPWELPRIIEGKKVALIFGRESVGLTREEIAKSDLLLFIPGNPEYPVLNLSHAVGIVLYEIWKSRGENKPVISGEAISLIDKYSRDLVNLIKSNEGDEAMYIALKRALIKGIGDEEEARTIIRLLRKLYIKLTRKIE

Soluble on expression in E. coli, not soluble:
METEVMKSFNNELSSLFDSKNMSKNKIQDITKAAIKAKSQYKHVVFSVEKLINKCKPDQRLNVLYVIDSIVRASKHQLKEKDTFGPRFMKQFDKFLMPLLKCGQKEKMRTVRTLNLWMSNKVFKESEIQPLREMCKASGLTIDFEEVELAVKGKQADMSIYSGVYKKKPKRSSSSSQPKSRTPTNPHPDDGLLGAGPSSALRSVPDIPNFVLSEDYFLGTISEREMLELVQKFGIDRSGVLSKDKNLLQRALQIFAGSLSQKVEEVLAENNRINGSSIQNVLTKDFEYSDDEEEKEKEPQPEKQKNLPHAQVLLLAQSLLTQPQILAKLAEVLIPQGNPFGLPFPGEHIVPTSSAALTLGAPPPNLMALQQSLPPGFPNQQLGLPNLSGLNQAQLMNVQNAQNMLQLQQRAAQLQALQGNPNAQRNLLMLGNPLLNPFALQHGVNPMLNDLQAAAAAQQQAMLNEAAQSPEKKILELSGGNSGINNSGDVERARLREKEKERESKERRRMGLPPVRIGFTIIASRTLWLKKIPTNIVENDLKQAVESCGEASRVKVIGNRACAYITMENRRSANDVVSKMREVSVAKKMVKVYWARSPGMDSDQFSDLWDSNRGVLEIPYEKLPLDLVALCEGAMLDIESLPIEKKLLYKETGETVISIPPPNIQPPVPHPPPMGFPFQHQLTQLPGQPRPAGLPPGVPPMFNLNAPPPPGIPGYPPAPPPPGVGPPPPQGIPPMGFDPNKPPPPMFQQGFNAGAPPPPFGRGAGPMSSFPPPPRGGMHHMPPPPSFRGGRGGHGGPPPPHFDRRGGGGPPFRPENGRGRLLDQSEMWNREQREMRGGGGAGRDGGREHRDYDRDRSQIDRRRQDDMGARRRSRWGDDDRRDDDRRDDRRDDRRESRRRSPRSPRSPDRRTRRSPSYEREEPPVKKTSVEEETVSSTTLDELKPSVEPTPVPAPIPAPAPELKAAEEPVKIVAEHHEDQTDEVPMDLE
MGSDKIHHHHHHMLAIIKQFFAKSHGTTVSDSRFLALNHWLSNTFGEPLSPVLISGDASFRRYFRAVHQGRAMVIMDTPVALIPTEPFVAVRNAYAASGLPVPGIIAKDDEQGFMALEDFGDVQLLSLLNSQSVRHWYPRALALLPGIAAVTQTVLGPLPDYDDAFVRRELGIFTEWLLGTHLKLELTSDEEAIIADAFDMLTQNALEQPKVGMHRDFHSRNLMVVDGELKLLDFQDAVLGPVTYDAVSLLRDCYIRWSEDLVDDMLVEFFVLAHEHALVPPHTDMVQFRRWFELMGLQRHIKAAGIFARLNHRDGKAGYLKDIPLTMHYIRDVAVRYKELGDFAQFIMRRVMPALEAGA
MSSPHSLRQQYQSLIASGSIEADPAQARAVQAFTLLNETLDGYKPPKKQGFFGRLFGGGDAGQAPPQGLYIHGEVGRGKTMLMDLFFDASPIALKRRSHFHEFMAETHDRINGFRQAIKRGDIPDADVMELTAASILDEAWLLCFDEFHVTDIADAMILGRLFTKLFELGTVVVATSNVAPDDLYKGGLNRSLFMPFIGQVKRHMRVIRLDARTDYRLEKFAGMKVWLAPDDAEATATIDRAWHRITGTTKGEPRDISIKGRILHVPQADHHVARFSFADLCQKPLGASDYLRLAHEYHTLMIDHVPVMDYADRNAAKRFIALIDTLYDNSVKLMASAAAEPARLYRATEGFEALEFNRTVSRLTEMGSESYLALPHGRRDSTATGETTGLVETMAGDPLEHHHHHH
MGSDKIHHHHHHMKQKTIHIENLSIGYLGKTDVKVVADRINAGINCGELTCLLGANGVGKSTLLRTLSAFQPKLGGKIEIVGKEIDAYTDKELSTVISVVLTEKCDIRNMTVHELVGLGRSPYTDFWGTLRGEDKEVVERSIALVKIQNLAHRMVHTLSDGERQKVMIAKALAQETPVIFLDEPTAFLDFPSKVEMMQLLHRLSRQTNKTIFLSTHDLELALQIADKIWLMDKMNGVTIGTPEDLSLSGKLSSFFARKGIVFDLETGLFRVDNEYTSQIRLVGHGQKYAMVRKALQRNGILANRTVESDTYIETGDLKDGNGFILHPQEGEAVTLNSIEELLERLQAGSAERAV
MAHHHHHHMSVDFTSKAVDLLKRATTLDEAKEYEEAYRWYMDSIEVFMTAIKYENKNPTKKEMLKNKVRQVMERAKMIKEYLDGSKEGDSNVGNTGSTAQKTASASKKAKEEEEDKQRMRNALGGAIVRVKPNVNWSQIAGLEGAKEALKEAVILPVRFPQLFTGNRKPWKGILMYGPPGTGKSFLAKAVATEADGTFLSVSSADLMSRWLGDSEKLVRNLFEMAREAWKTDGKPAIIFIDEIDSMCSSRTDGENDALRRIKTEFLVQMQGVGHEDDGVLVLGATNIPWSLDSAVRRRFERRIYIPLPDVQARYQMFKIHIGDTPHTLTEKDWYELARMTDKYSGSDINIVVRNAMMECIRSVQVATHFKRVTGPDLKDPTRMTNNRLVPCSPGDPEGFAMTAQEITEPGLLMPLPVTMQDFVKALRTARPSVADDDITQHLKFTEEFGQEG
MEAFIRSDQYNFIKSQAYILANGHATANDRGVIQALKSLAIEKIIHVFENLTDEQKELIDTVLTVQNREDAESFLTKINPYVIPFQEVTAQTLKKLFPKAKKLKLPDMEEMDMKEISYLSWVDKGSSRKFIIAKNDKNKFVGLQGTFQSLNKKSICSLCHGHEEVGMFLVEIKGDIPGTFVKKGNYICKDGVACNQNMKSLDKLQDFIERLKK
MSLPTTSSPLTNDQEFAKPVRNGKIFENPKSFTNWGGRPGLTNIFKLVLRETSHENLPSDKKVLDSTLPVHNITADDFHSESGLFATWLGHATVLVDLEGVKFVTDPVWADRASFTSFAGPKRYRPPPMKLEDLPDLDFAVVSHDHYDHLDADAVKRITNLNPQIKWFVPLGLKKWMKNQGIGADGSNTVTELNWGESSEFVKNGKTITIWCLPAQHSGQRGLSDHNHRLWSGWAVIGENRRFYFPGDTGFCDVEFKKIGEKLGPFDLAAIPIGAYEPRWFMKSHHINPDEAVEVHKLVRARNSIGIHWGTYPMGTTEYYLEPRDKLKELMDAREDLKDTSFVTVDMGEIWEASDR
MSTHFGYKTVEADKKADLVAGVFHSVAAKYDIMNDVMSFGIHRFWKRYTIEVSGARPGMKVLDLAGGTGDLTAKFSHLVGDKGEVVLADINDSMLKVGRTKLRDRGIVSNVSYVQANAEALPFPDNHFDIITIAFGLRNVTDKDAALRSMNRVLKPGGKLLVLEFSKPQHEVMRKVYDLYSFKVLPKMGQLITKDADSYEYLAESIRMHPDQDTLKQMMVDAGFEQVDYTNMTDGIVALHRGYKLEHHHHHH
MKSRTRWLTSEELVTLFEAMRQAPGFSVENGLSIKLLLLLAVRKGELIGARWSEFDLDKAVWYLPAERTKTESAIDIPLPPIAVEWLRELQRLAGVSKWVLPARKMQDRMIPHIAESTLSVALAKIKHGLEPFTIHDLRRTARTHFEALGVAPHIAERCLNHKIKGIEGIYNRHDYFEERKAALEAWAGLLLQIERGEADKVVPIRRAVATKQLEHHHHHH
MGSDKIHHHHHHMEGHIVITGATGVIGSEVARRLIKSGREVVVFARSPQSAAAKVPGAADYVRWDSDMAPDGWSSSIDGAYAVIHLAGRPLLETRWTEEHKVACYDSRIKGTRALVAAMASASVKPKVFVSSSAIGYYGSFDRCEETDPLTEKAAPGKDFLAKICFDWEKEARPAETLGTRVVLLRTGIVLSTKGGMLQKMMIPFSYFVGGPVGSGDQCLSWIHLDDEVSIILQALDNADWSGPVNAVAPEPVSMKAFADSLGLVMHRPSLFPVPKLAVQILLGEGADYAVKGQKVSPEFLKERDFHFAWPSLNEALADLVSRGI
MVVLNTPGKYQYDLRNHLLVNLFPIALDAEITTSNVNKHQLHRSNIPAALSGNSGITDYVPFSAERNAAMVIWRTAIDSRPAVCNDEEGTPGTL
AGVNDDMPLKECYRTMWLNIWNLAGSNLNAISNRVQYDSLPCTTRNKTWELERKMFAQVDRLFNQGKEEGVFKPLDNEVLSGLSFEASVALARKHALGFYQLDDDALEAAIEASWDAIIKH
